Data: the supplement of paper PMC10567573

B1: STX5 (parent)
chain: ESTIVELGSIFQQLAHMVKEQEET

Variants of: B1
Experiment: protein stability index of a GFP-peptide fusion (GPS, HEK-293T) (PSI 1-6); higher = more stable
Conditions: c terminus: a fixed tail appended
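Also: lentivirally expressed fusions sorted by FACS into six bins by GFP to DsRed ratio, PSI derived from sequencing read proportions per bin multiplied by bin number.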

Variant	protein stability index
I4H	3.14
I4D	2.78
I4P	2.93
I4A	2.27
I4V	3.59
I4W	2.54
I4K	2.55
I4T	2.73
I4Y	1.91
I4M	1.57
I4L	1.81
I4Q	3.69
I4E	2.8
I4R	3
I4S	2.64
I4C	2.83
M17C	3.6
M17W	2.06
M17I	2.3
M17N	4.16
M17T	4.18
M17G	3.86
M17Y	3.29
M17L	1.7

Variant	protein stability index
M17Q	2.26
M17A	2.83
M17H	3.7
M17K	2.06
M17F	2.46
M17P	4.59
M17R	3
S9R	2.41
S9T	2.11
S9Q	2.1
S9Y	1.46
S9G	3.22
S9V	1.8
S9N	2.26
S9I	1.32
S9K	2.34
S9L	1.71
S9E	2.08
S9M	1.87
S9D	2.55
S9C	1.63
S9A	1.65
E20M	4.03
E20Y	3.75

Variant	protein stability index
E20S	2.08
E20D	2.78
E20F	1.98
E20G	2.02
E20A	2.19
E20H	1.62
E20Q	1.12
E20P	1.61
E20T	1.18
E20R	1.76
E20C	2.54
T3R	3.19
T3Y	2.05
T3E	1.43
T3I	2.94
T3H	2.4
T3V	2.56
T3C	2.02
T3A	2.96
T3L	1.85
T3W	1.24
T3P	3.03
T3F	1.3
T3M	1.44

Variant	protein stability index
F11D	5.77
F11V	3.19
F11W	2.83
F11A	3.83
F11I	2.27
F11Q	3.48
F11Y	3.19
F11C	3.62
F11S	4.27
F11G	5.35
F11T	4.81
F11H	5.76
F11R	4.92
E6H	2.33
E6P	2.75
E6L	2.34
E6G	2.75
E6V	1.62
E6T	1.91
E6N	3.14
E6A	1.65
E6K	2.54
E6D	1.63
E6Y	1.81

Variant	protein stability index
E6R	4.41
E22P	1.69
E22N	1.98
E22H	1.3
E22Y	1.39
E22M	2.89
E22D	1.97
E22T	1.39
E22Q	2.65
G8H	2.48
G8C	2.33
G8S	2.79
G8K	1.94
G8A	2.47
G8Q	1.68
G8R	1.84
G8I	2.24
G8P	3.99
G8M	1.35
G8N	2.44
G8F	2.06
G8T	2.69
G8E	3.02
L14E	5.33

Variant	protein stability index
L14Q	4.75
L14N	5.24
L14Y	1.81
L14R	5.32
L14V	2.81
L14P	4.93
L14H	4.11
L14D	5.05
L14W	3.17
L14F	1.69
L14S	5.26
L14A	4.31
L14T	4.78
L14K	5.2
L14G	4.64
L14M	3.77
S2R	1.25
S2M	1
S2K	2.24
S2E	2.62
S2W	2.19
S2G	1.78
S2A	1.39
S2F	2.93

Variant	protein stability index
S2P	1.7
S2Y	1.7
S2Q	1.97
S2I	1.86
S2L	2.28
S2N	1.97
Q21T	2.88
Q21S	1.81
Q21M	1.87
Q21E	3.05
Q21G	2.75
Q21H	1.97
Q21K	2.6
Q21V	1.73
Q21D	2.4
Q21N	2.12
Q21Y	2.23
Q21I	1.64
Q21W	3.33
Q21L	2.67
Q21P	3.29
K19H	2.44
K19T	2.41
K19R	1.85

Variant	protein stability index
K19G	2.76
K19F	2.31
K19M	1.9
K19P	4.08
K19Y	1.17
K19C	1.41
K19S	1.97
K19E	2.92
K19I	1.59
K19N	2.95
T24G	1.97
T24D	1.89
T24R	2.12
T24H	2.42
T24L	1.5
T24F	1.6
T24W	2.89
T24I	1.78
T24V	2.01
T24C	1.62
T24Q	1.59
T24A	2.17
T24P	2.77
T24N	2.88

Variant	protein stability index
T24K	1.83
T24Y	2.29
E23Y	1.2
E23D	2.19
E23S	1.23
E23A	1.88
E23V	3.06
E23C	1.83
E23I	2.38
E23R	1.77
E23L	1.42
E23G	1.28
E23K	1.48
E23T	1.32
E23N	1.47
E23Q	2.5
H16G	2.13
H16F	2.02
H16P	4.65
H16V	2.43
H16E	1.96
H16M	3
H16N	1.97
H16D	1.78

Variant	protein stability index
H16Y	1.67
H16K	2.27
H16S	2.36
H16L	2.75
H16R	1.79
H16I	1.88
V5L	2.04
V5F	1.83
V5T	1.99
V5H	1.71
V5S	2.46
V5Q	2.07
V5C	2.58
V5E	2.12
V5A	2.28
V5P	3.5
V5I	2.55
V5D	3
V5G	2.79
V5N	2.04
V5M	2.56
Q12W	1.32
Q12H	3.15
Q12Y	2.17

Variant	protein stability index
Q12S	2.1
Q12N	2.99
Q12F	2.26
Q12A	1.98
Q12V	2.07
Q12I	2.26
Q12M	1.98
Q12R	2.4
Q12D	3.34
Q12K	1.79
Q12L	3.46
Q12P	4.39
L7E	5.22
L7I	2.16
L7C	3.74
L7K	5.07
L7M	2.48
L7T	4.5
L7W	2.99
L7R	5.13
L7H	4.9
L7Y	3.97
L7P	4.75
L7G	5.65

Variant	protein stability index
L7N	4.96
L7D	5.12
Q13L	1.54
Q13S	2.95
Q13W	1.88
Q13F	1.57
Q13H	2.43
Q13T	3.28
Q13Y	2.37
Q13A	2.4
Q13E	2.57
Q13I	1.44
Q13G	4.12
Q13K	2.8
Q13P	4.54
V18E	4.64
V18N	4.38
V18L	1.8
V18D	5.09
V18I	2.41
V18G	4.6
V18P	4.45
V18Y	2.44
V18R	3.65

Variant	protein stability index
V18T	3.45
V18Q	2.37
V18C	2.44
V18W	2.22
V18F	1.81
A15C	2.21
A15T	3.66
A15M	1.74
A15D	4.28
A15R	2.67
A15P	4.91
A15F	2.09
A15I	1.53
A15W	2.18
A15K	3.1
A15S	2.99
A15N	3.67
A15Q	2.81
A15Y	1.74
A15H	3.15
A15L	1.76
I10E	5.46
I10Q	4.27
I10D	5.88

Variant	protein stability index
I10N	5.07
I10V	3.1
I10L	2.63
I10W	2.58
I10F	2.26
I10C	3.72
I10R	3.9
I10K	3.69
I10H	4.5
I10S	4.89
E1R	2.27
E1S	1.9
E1P	2.71
E1A	2.13
E1Y	2.49
E1T	2.26
E1K	1.87
E1W	1.61
E1G	2.69
E1N	2.22
E1Q	1.68
E1V	1.79
